# Target: Zn2+
# Assay: Zincon assay
# Conditions: purified Vif complex denatured and deproteinated; metal ions measured in supernatant; parent: est. 1.3; read off a plot
row,Substance,other: Zn2+:Protein Ratio
1,"maedi–visna virus (MVV) Vif, WT, residues 1-230, N-terminal 6xHis tagged (from UniProt P69715) H152N",0.97
2,"maedi–visna virus (MVV) Vif, WT, residues 1-230, N-terminal 6xHis tagged (from UniProt P69715) H129N",0.92
3,"maedi–visna virus (MVV) Vif, WT, residues 1-230, N-terminal 6xHis tagged (from UniProt P69715) C157S",0.2
4,"maedi–visna virus (MVV) Vif, WT, residues 1-230, N-terminal 6xHis tagged (from UniProt P69715) H186N",1.1
5,"maedi–visna virus (MVV) Vif, WT, residues 1-230, N-terminal 6xHis tagged (from UniProt P69715) C160S",0.17
6,"maedi–visna virus (MVV) Vif, WT, residues 1-230, N-terminal 6xHis tagged (from UniProt P69715) C207S",0.93
7,"maedi–visna virus (MVV) Vif, WT, residues 1-230, N-terminal 6xHis tagged (from UniProt P69715) H181N",1.2
8,"maedi–visna virus (MVV) Vif, WT, residues 1-230, N-terminal 6xHis tagged (from UniProt P69715) C222S",0.77
9,"maedi–visna virus (MVV) Vif, WT, residues 1-230, N-terminal 6xHis tagged (from UniProt P69715) C137S",0.07
10,"maedi–visna virus (MVV) Vif, WT, residues 1-230, N-terminal 6xHis tagged (from UniProt P69715) C135S",0.09
11,"maedi–visna virus (MVV) Vif, WT, residues 1-230, N-terminal 6xHis tagged (from UniProt P69715) H7N",1.2

# Reference: PMC7949081
